Measurements: patent publication US20060234285A1 (Human Genome Sciences, published 2006)

Key:
Assay in all cases: flow cytometry on transiently transfected cells
[1] = target: T1, TNFR2, on transiently transfected cells (UniProt P20333 23-461, limits assumed)
T1 construct: whole, on cells
T1 sequence (looked up): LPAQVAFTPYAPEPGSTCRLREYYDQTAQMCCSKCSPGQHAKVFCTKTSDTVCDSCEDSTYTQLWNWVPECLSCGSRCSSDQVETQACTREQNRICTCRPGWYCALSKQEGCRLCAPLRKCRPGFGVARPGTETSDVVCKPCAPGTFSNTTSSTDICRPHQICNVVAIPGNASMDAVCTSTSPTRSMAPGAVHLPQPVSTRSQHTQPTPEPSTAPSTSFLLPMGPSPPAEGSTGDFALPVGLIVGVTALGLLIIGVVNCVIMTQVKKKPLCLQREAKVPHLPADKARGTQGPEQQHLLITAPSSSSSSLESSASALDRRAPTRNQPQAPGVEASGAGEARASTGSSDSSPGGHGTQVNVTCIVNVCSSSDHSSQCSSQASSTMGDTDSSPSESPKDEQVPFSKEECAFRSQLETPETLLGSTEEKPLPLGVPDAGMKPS
Description: (§1) One million cells, in 0.1 ml of FACS buffer (PBS, 0.1% BSA, 0.1% NaN₃), were incubated with 0.1-1 microgram of protein or antibody at RT for 15 min. The cells were washed with 3 ml of FACS buffer, reacted with biotinylated primary antibody, and stained with PE-conjugated secondary antibody at RT for 15 min. Cells were then washed again, resuspended in 0.5 microgram/ml of propidium iodide, and live cells were gated and analyzed on a FACScan using the CellQuest software (BD Biosciences).

[2] = target: T2, LTβR, on transiently transfected cells (UniProt P36941 31-435)
T2 construct: whole, on cells
T2 sequence (P36941 31-435): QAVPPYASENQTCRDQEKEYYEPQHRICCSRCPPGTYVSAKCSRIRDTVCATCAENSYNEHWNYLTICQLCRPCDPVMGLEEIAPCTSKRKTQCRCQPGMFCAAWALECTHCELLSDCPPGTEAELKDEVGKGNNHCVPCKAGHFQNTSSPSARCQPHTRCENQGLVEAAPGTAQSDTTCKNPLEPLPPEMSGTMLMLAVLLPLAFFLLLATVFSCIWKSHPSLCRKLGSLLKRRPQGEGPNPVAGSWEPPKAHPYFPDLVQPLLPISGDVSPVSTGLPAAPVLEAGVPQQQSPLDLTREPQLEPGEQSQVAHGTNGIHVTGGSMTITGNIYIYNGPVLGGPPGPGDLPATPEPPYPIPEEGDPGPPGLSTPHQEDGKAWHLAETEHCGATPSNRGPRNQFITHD
Description: as §1

[3] = target: T3, CD27, on transiently transfected cells (UniProt P26842 20-260, limits assumed)
T3 construct: whole, on cells
T3 sequence (looked up): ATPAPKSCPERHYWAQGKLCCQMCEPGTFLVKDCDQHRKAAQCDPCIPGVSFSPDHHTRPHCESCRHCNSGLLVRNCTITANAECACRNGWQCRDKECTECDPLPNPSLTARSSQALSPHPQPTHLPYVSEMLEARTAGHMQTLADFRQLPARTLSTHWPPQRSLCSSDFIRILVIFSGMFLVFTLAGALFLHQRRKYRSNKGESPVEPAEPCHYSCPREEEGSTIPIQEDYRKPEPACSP
Description: as §1

[4] = target: T4, DR4, on transiently transfected cells (UniProt O00220 24-468, limits assumed)
T4 construct: whole, on cells
T4 sequence (looked up): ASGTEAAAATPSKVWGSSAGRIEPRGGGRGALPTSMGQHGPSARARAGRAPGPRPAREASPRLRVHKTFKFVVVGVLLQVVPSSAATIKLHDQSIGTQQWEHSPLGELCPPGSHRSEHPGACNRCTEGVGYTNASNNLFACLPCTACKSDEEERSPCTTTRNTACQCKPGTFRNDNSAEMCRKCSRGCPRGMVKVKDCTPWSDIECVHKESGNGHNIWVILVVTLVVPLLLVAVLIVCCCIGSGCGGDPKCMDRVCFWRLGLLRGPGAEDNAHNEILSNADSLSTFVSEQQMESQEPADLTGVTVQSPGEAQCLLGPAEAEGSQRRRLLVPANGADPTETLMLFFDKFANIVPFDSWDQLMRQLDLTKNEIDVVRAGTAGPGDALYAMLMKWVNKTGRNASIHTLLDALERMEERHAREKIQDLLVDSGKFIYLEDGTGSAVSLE
Description: as §1

[5] = target: T5, DR5, on transiently transfected cells (UniProt O14763 56-440, limits assumed)
T5 construct: whole, on cells
Description: as §1

[6] = target: T6, DR6, on transiently transfected cells (UniProt O75509 42-655, limits assumed)
T6 construct: whole, on cells
T6 sequence (looked up): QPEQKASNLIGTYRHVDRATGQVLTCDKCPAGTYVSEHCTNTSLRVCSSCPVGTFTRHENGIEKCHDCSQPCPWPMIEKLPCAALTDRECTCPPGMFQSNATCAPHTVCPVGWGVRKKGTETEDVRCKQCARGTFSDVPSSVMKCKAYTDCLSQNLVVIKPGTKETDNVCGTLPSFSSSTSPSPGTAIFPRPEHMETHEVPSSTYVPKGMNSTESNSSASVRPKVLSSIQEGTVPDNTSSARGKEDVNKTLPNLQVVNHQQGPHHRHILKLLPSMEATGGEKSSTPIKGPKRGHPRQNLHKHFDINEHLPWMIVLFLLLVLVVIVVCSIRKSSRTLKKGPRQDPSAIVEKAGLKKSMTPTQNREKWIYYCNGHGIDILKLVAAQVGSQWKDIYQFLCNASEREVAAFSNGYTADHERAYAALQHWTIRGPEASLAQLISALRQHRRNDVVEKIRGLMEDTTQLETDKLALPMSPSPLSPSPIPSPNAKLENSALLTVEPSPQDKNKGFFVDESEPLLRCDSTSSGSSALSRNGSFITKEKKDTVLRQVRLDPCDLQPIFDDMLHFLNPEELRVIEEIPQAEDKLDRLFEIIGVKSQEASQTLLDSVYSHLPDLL
Description: as §1

[7] = target: T7, DcR2, on transiently transfected cells (UniProt Q9UBN6 56-386, limits assumed)
T7 construct: whole, on cells
T7 sequence (looked up): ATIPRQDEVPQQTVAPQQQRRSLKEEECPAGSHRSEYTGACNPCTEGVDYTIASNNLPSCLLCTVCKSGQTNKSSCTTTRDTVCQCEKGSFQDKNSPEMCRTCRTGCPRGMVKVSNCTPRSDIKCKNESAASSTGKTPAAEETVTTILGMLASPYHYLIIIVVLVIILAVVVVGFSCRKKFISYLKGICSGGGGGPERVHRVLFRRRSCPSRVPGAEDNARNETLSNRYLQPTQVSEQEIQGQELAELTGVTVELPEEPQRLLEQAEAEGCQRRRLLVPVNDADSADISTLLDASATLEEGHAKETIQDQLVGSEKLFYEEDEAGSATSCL
Description: as §1

[8] = target: T8, AITR, on transiently transfected cells (UniProt Q9Y5U5 26-241, limits assumed)
T8 construct: whole, on cells
T8 sequence (looked up): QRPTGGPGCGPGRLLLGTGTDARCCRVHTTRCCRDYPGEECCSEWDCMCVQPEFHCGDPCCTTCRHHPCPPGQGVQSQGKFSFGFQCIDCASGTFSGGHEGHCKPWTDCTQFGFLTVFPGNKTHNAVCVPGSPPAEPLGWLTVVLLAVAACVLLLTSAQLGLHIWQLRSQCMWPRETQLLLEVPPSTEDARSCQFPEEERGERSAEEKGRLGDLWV
Description: as §1

Measured: binding result

B1: FLAG-tagged soluble form of TNF-gamma-beta (aa 72-251) (ligand, human, UniProt O95150 72-251, looked up, not shown: small tags and cut ends)
chain: LKGQEFAPSHQQVYAPLRADGDKPRAHLTVVRQTPTQHFKNQFPALHWEHELGLAFTKNRMNYTNKFLLIPESGDYFIYSQVTFRGMTSECSEIRQAGRPNKPDSITVVITKVTDSYPEPTQLLMGTKSVCEVGSNWFQPIYLGAMFSLQEGDKLMVNVSDISLVDYTKEDKTFFGAFLL
notes: also called FLAG-TL1β; FLAG-TNF-gamma-beta
no binding: all assays above
